Assay: yeast display, Sf9 membrane polyspecificity reagent, FACS + sequencing; frameworks hold sequencing errors
Method in brief: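 Sorting gates, low and high (top ~1%), were placed on anti-HA fluorescence to track expression and on streptavidin fluorescence to track reagent binding. A clone's polyreactivity label is taken from the gate it came out of. The reagent was 10% biotinylated, detergent-solubilized Sf9 membrane, applied for 1 hour at 4 °C to galactose-induced yeast display cells.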

Sequence: QVQLVESGGGLVQAGGSLRLSCAASGRIIYYAMGWYRQAPGKERELVAAITRNGGTYADSVKGRFTISRDNAKNTVYLQMHRLKPEDTAVYYCNADPDFGDDYWGQGTQVTVSS
- polyreactivity (PSR sort gate): low polyreactivity

Sequence: QVQLVESGGGLVQAGGSLRLSCAASGRIIYYYAMGWYRQAPGKERELVAAISWSGVNTYYADSVKGRFTISRDNAKNTVYLQMNSLKPEDTAVYYCAAGFAYKYSKGFWSDYWGQGTQVTVSS
- polyreactivity (PSR sort gate): high polyreactivity

Sequence: QVQLVESGGGLVQAGGSLRLSCAASGRILAINVMGWYRQAPGKERELVAAITLSSGSTYYADSVKGRFTMSRDNAKNTVYFQMNSLKPEDTAVYYCAADVYSGLSEGYYWGQGTQVTVSS
- polyreactivity (PSR sort gate): low polyreactivity

Sequence: QVQLVESGGGLVQAGGSLRLSCAASGRILAPYAMGWYRQAPGKERELVAAINWSTGRTYYADSVKGRFTISRDNAKNTVYLQMNSLKPEDTAVYYCAALIVFDTLYDYGYWGQGPQVTVSS
- polyreactivity (PSR sort gate): low polyreactivity

Sequence: QVQLVESGGGLVQAGGSLRLSCAASGRILARNAMGWYRQAPGKERELVAVISYSGGRTYYADSVKGRFTISRDNAKNTVYLQMNSLKPEDTAVYYCAASRSFQGNRYDYWGQGTQVTVSS
- polyreactivity (PSR sort gate): high polyreactivity

Sequence: QVQLVESGGGLVQAGGSLRLSCAASGRILARYAMGWYRQAPGKERELVASISRRGGSTYYADSVKGRFTISRDNAKNTVYLQMNSLKPEDTAVYYCNARGPVSSGYDYWGQGTQVTVSS
- polyreactivity (PSR sort gate): high polyreactivity

Sequence: QVQLVESGGGLVQAGGSLRLSCAASGRILDANDMGWYRQAPGKERELVAGINSGGSTYYADSVKGRFTISRDNAKNTVYLQMNSLKPEDTAVYYCAAGGVSAKYDYWGQGTKVTVSS
- polyreactivity (PSR sort gate): low polyreactivity

Sequence: QVQLVESGGGLVQAGGSLRLSCAASGRILDFNAMGWYRQAPGKERELVAAINNSGGSTYYADSVKGRFTISRDNAKNTVYLQMNSLKPEDTAVYYCARYAIWKRGYWGQGTQVNVSS
- polyreactivity (PSR sort gate): low polyreactivity

Sequence: QVQLVESGGGLVQAGGSLRLSCAASGRILDKYAMGWYRQAPGKERELVARIRFSGGDTYADSVKGRFTISRDNAKNTVYLQMNSLKPEDTAVYYCNKDRRNRWYAFDYWGQGTQVTVSS
- polyreactivity (PSR sort gate): low polyreactivity

Sequence: QVQLVESGGGLVQAGGSLRLSCAASGRILDVNDMGWYRQAPGKERELVAAISSGTNTYYADSVKGRFTISRDNAKNTVYLQMNSLKPEDTAVYYCAADYLGLSDADDYDYWGQGTQVTVSS
- polyreactivity (PSR sort gate): low polyreactivity

Sequence: QVQLVESGGGLVQAGGSLRLSCAASGRILFHYAMGWYRRAPGKERELVAAITWRGGGTHYADSVKGRFTISRDNAKNTVYLQKNSLKPEDTAVYYCNAEYNGYFSRSGFYYWGQGTQVTVSS
- polyreactivity (PSR sort gate): low polyreactivity

Sequence: QVQLVESGGGLVQAGGSLRLSCAASGRILFSYGAMGWYRQAPGKERELVAAISYSGGSTYYADSVKGRFTISRDNAKNTVYLQMNSLKPEDTAVYYCAASSIVYRHYYWGQGTQVTVSS
- polyreactivity (PSR sort gate): high polyreactivity

Sequence: QVQLVESGGGLVQAGGSLRLSCAASGRILGAYAMGWYRQAPGKERELVASISSGGRTYYADSVKGRFTISRDNAKNTVYLQINSLKQEDTAVYYCAAEYFIWSYPRYEYWGQGTQVNVSS
- polyreactivity (PSR sort gate): high polyreactivity

Sequence: QVQLVESGGGLVQAGGSLRLSCAASGRILGDYAMGWYRQAPGKEREFVAAIDYNGGSTNYADSVMGRFTISRDNAKNTVYLQMNSLKPEDTAVYYCAKTDGFYRGYGYWGQGTQVTVSS
- polyreactivity (PSR sort gate): low polyreactivity

Sequence: QVQLVESGGGLVQAGGSLRLSCAASGRILGKNTMGWYRQAPGKEREFVAAISASGGRTYYADSVKGRFTISRDNAKNTVYLQMNSLKPEDTAVYYCAAARSRYSYATGFDYWGQGTQVTVSS
- polyreactivity (PSR sort gate): high polyreactivity

Sequence: QVQLVESGGGLVQAGGSLRLSCAASGRILGKYAMGWYRQSPGKERELVAAIRLRGGSTYYADSVKGRFTISRDNAKNTLYLQMNSLKPEDTAVYYCAARFWDRSQAYNYWGQGTQVTVSS
- polyreactivity (PSR sort gate): high polyreactivity

Sequence: QVQLVESGGGLVQAGGSLRLSCAASGRILGYNAMGWYRQAPGKERELVAAITSGGSTYYADSVKGRFTISRDNAKNTVYLQMNRLKPEDTAVYYCAKRAFSYVGGQQDRNENYYYWGQGTQVTVSS
- polyreactivity (PSR sort gate): high polyreactivity

Sequence: QVQLVESGGGLVQAGGSLRLSCAASGRILIPYAMGWYRQAPGKEREFVAGITGSGGRTYYADSVKGRFTISRDNAKNTVYLQMNSLKPEDTAVYYCDAVYYYSPTMYYWGQGTQVTVSS
- polyreactivity (PSR sort gate): low polyreactivity

Sequence: QVQLVESGGGLVQAGGSLRLSCAASGRILKRNSMGWYRQAPGKERELVAAITSSGGSTYADSVKGRFTISRDNEKNTVYLQMNSLKPEDTAVYYCNAGYKRPWSHKYYWGQGTQVTVSS
- polyreactivity (PSR sort gate): low polyreactivity

Sequence: QVQLVESGGGLVQAGGSLRLSCAASGRILKVYAMGWSRQAPGKERELVAAITSGSSTYADSVKGRFTISRDNAKNTVYLQMNSLKPEDTAVYYCAAVFWVDILPGDYWGQGTQVTVSS
- polyreactivity (PSR sort gate): low polyreactivity

Sequence: QVQLVESGGGLVQAGGSLRLSCAASGRILKWNAMGWYRQAPGKERELVAAISQSGGSTYYADSVKGRFTISRDNAKNTVYLQMNSLKPEDTAVYYCATSGDWWGFRYDYWGQGTQVTVSS
- polyreactivity (PSR sort gate): low polyreactivity

Sequence: QVQLVESGGGLVQAGGSLRLSCAASGRILKYYAMGWYRQAPGKERELVAAISGSSGSTYYADSVKGRFTISRDNAKNTVYLQMNSLKPEDTAVYYCAAQGRDSTPHGYWGQGTQVTVSS
- polyreactivity (PSR sort gate): high polyreactivity

Sequence: QVQLVESGGGLVQAGGSLRLSCAASGRILLRNVMGWYRQAPGKERELVAVITRTGITYYADSVKGRFTISRDNAKNTVYLQMNSLKPEDTAVYYCAAGLPKYEHDYWGQGTQVNVSS
- polyreactivity (PSR sort gate): low polyreactivity

Sequence: QVQLVESGGGLVQAGGSLRLSCAASGRILNYYTMGWYRQAPGKERELVAAISGSDGNTYYADSVKGRFTISRDNAKNTVYLQKNSLKPEDTAVYYCSADLYDEWGQGTQVTVSS
- polyreactivity (PSR sort gate): low polyreactivity

Sequence: QVQLVESGGGLVQAGGSLRLSCAASGRILPRNAMGWYRQAPGKERELVAAISWDGGSTYYADSVKGRFTISRDNAKNTDYLHMNSLKPEDTAVYYCATDYPSLHRGMDYWGQGTQVTVSS
- polyreactivity (PSR sort gate): low polyreactivity

Sequence: QVQLVESGGGLVQAGGSLRLSCAASGRILPRNAMGWYRQAPGKERELVAGISSEGSTNYADSVKGRFTISRDNAKYTVYLQMNSLKPEDSAVYYCAADGVYDPNLYGYWGQGTQVNVSS
- polyreactivity (PSR sort gate): low polyreactivity

Sequence: QVQLVESGGGLVQAGGSLRLSCAASGRILPYYAMGWYRQAPGKERELVAAITSGGSTYYADSVKGRFTISRDNAKNTVYLQMNSLKPEDTAVYYCATDVDKSLYDYWGQGTQVTVSS
- polyreactivity (PSR sort gate): low polyreactivity

Sequence: QVQLVESGGGLVQAGGSLRLSCAASGRILRDYDMGWYRQSPGKERELVAAINWSDGSTYYADSVKGRFTISRDNAKNTVYLQMNSLKPEDPAVYYCAASRWRPLERGTTWLHDYWGQGTQVTVSS
- polyreactivity (PSR sort gate): low polyreactivity

Sequence: QVQLVESGGGLVQAGGSLRLSCAASGRILRFYAMGWYRQAPGKERELVATISRSGGSTYYADSVKGRFTISRDNAKNTVYLQMNSLKPEDTAVYYCNAFLYARQRDRWARYDYWGQGTQVTVSS
- polyreactivity (PSR sort gate): high polyreactivity

Sequence: QVQLVESGGGLVQAGGSLRLSCAASGRILRGYAMGWYRQAPGKERELVAAISWNGGSTYYADSVKGRFTISRDNAKNTVYLQMNSLKPEDTAVYYCAVVFNPHRYTGVLAGYDYWGQGTQVTVSS
- polyreactivity (PSR sort gate): high polyreactivity

Sequence: QVQLVESGGGLVQAGGSLRLSCAASGRILRHNAKGWYRQAPGKERELVAAITNGGSTYYADSVKGRFTISRDNAKNTVYLQMNCLKPEDTAVYYCAARTRLAQYSRGRYRYDYWGQGTQVTLSS
- polyreactivity (PSR sort gate): high polyreactivity

Sequence: QVQLVESGGGLVQAGGSLRLSCAASGRILRQYAMGWYRQAPGKERELVARISYSGGSTYYADSVKGRFTISRDNAKNTVYLQMNSLKPEDTAVYYCAARRPYKYDYWGQGTQVTVSS
- polyreactivity (PSR sort gate): high polyreactivity

Sequence: QVQLVESGGGLVQAGGSLRLSCAASGRILRVNAMGWYRQAPGKERELVATITFRGGSTYYADSVKGRCTISRDNAKNTVYLQMNSLKPEDTAVYSCAKVIYRYNETYDYWGQGTQVTVSS
- polyreactivity (PSR sort gate): high polyreactivity

Sequence: QVQLVESGGGLVQAGGSLRLSCAASGRILRYNALGWYRQAPGTERELVASISGNGGSTYYADSVKGRVTISRDNAKNTVYLQMNSLKPEDTALYYCNKYYYSSRGQKEYDYWGQGTQVTVSS
- polyreactivity (PSR sort gate): low polyreactivity

Sequence: QVQLVESGGGLVQAGGSLRLSCAASGRILRYNAMGCDRQAPGKERELVASISGNGGSTYYADSVKGRFTISRDNAKNTVYLQMNSLKPEDTAVYYCNKYSYSSRGQKEYDYWGQGTQVTVSS
- polyreactivity (PSR sort gate): low polyreactivity

Sequence: QVQLVESGGGLVQAGGSLRLSCAASGRILRYNAMGWYRQAPGKERELVASISGNGGSTYYADSVKGRFTISRDNAKNTVYLQMKSLKPEDTAVYYCNKYYYSSRGQKEYDYWGQGTQVTVSS
- polyreactivity (PSR sort gate): low polyreactivity

Sequence: QVQLVESGGGLVQAGGSLRLSCAASGRILSFYVMGWYRQAPGKERELVAAIRRGGSTYYADSVKGRFTISRDNAKNTVYLQMNSLKPEDTAVYYCNARQRPPPYYYWGQGTQVTVSS
- polyreactivity (PSR sort gate): high polyreactivity

Sequence: QVQLVESGGGLVQAGGSLRLSCAASGRILSGNAMGWYRQAPGKERELVAAITNAAITKYADSVKGRFTISRDNAKNTVYLQMNSLKPEDTAVYYCATDRYAYKLYDYWGQGTQVTVSS
- polyreactivity (PSR sort gate): low polyreactivity

Sequence: QVQLVESGGGLVQAGGSLRLSCAASGRILSGYTMGGYRQAPGKERELVAAINWRGGTTYYADSVKGRFTISRDNAKHTVYLQMNSLKPEDTAVYYCDADYYYQAGFYYWGQGTQVTVSS
- polyreactivity (PSR sort gate): low polyreactivity

Sequence: QVQLVESGGGLVQAGGSLRLSCAASGRILSPYAMGWYRQAPGKERELVAVINTSGGRTYYADSVKGRFTISRDNAKNTVYLQMNSLKPEDTAVYYCAARERKVQYDYWGQGTQVTVSS
- polyreactivity (PSR sort gate): high polyreactivity

Sequence: QVQLVESGGGLVQAGGSLRLSCAASGRILSTYARGWYRQAPGKETELVAAITRTSGSTYYADSVKGRFTISRDNAKNTVYLQMNSLKPEDTAVDYCAADTWLITWSGQYNSWGQGTQVTVSS
- polyreactivity (PSR sort gate): low polyreactivity

Sequence: QVQLVESGGGLVQAGGSLRLSCAASGRILSYYPMGWYRQAPGKERELVAVIRRGASTYADSVKGRFTISRDNAKKTVYLQMNILKPEDTAVYYCAAADRDYTTFRYDYWGQGTQVTVSS
- polyreactivity (PSR sort gate): low polyreactivity

Sequence: QVQLVESGGGLVQAGGSLRLSCAASGRILTLNAMGWYRPAPGKERELVASIRSTGRTYYADSVKWRFTISRDNAMNTVYLQMNSLKPEDTAVYYCAADTRYRYGAYPYYEYDYWGQGTQVTVSS
- polyreactivity (PSR sort gate): low polyreactivity
